The results in this text go back to patent publication US20220306759A1 (CYTOMX THERAPEUTICS, published 2022).

Assay [1] concerns the target T1, recombinant human CD71 protein (human, UniProt P02786 89-760).
T1 construct: also called recombinant CD71
Briefly: ELISA; Kd against CD71 21.12. As for the experimental part: (§1) The amount of bound antibody was detected by incubation and detection by goat anti-human antibody conjugated to horseradish peroxidase and Ultra TMB (Thermo Fisher Scientific) detection.
A general note: An ELISA detects its analyte on a solid surface through an enzyme-linked reagent.

In assay [2] the target is T1, recombinant human CD71 protein. Briefly: ELISA, 1 µg/mL CD71, uncleaved. How it is done:
as §1

In assay [3] the target is T2, human CD71 (transferrin receptor protein 1, TfR1) on human cell lines (human, UniProt P02786 1-760).
T2 construct: whole, on cells; also called huCD71
T2 sequence (P02786 whole entry): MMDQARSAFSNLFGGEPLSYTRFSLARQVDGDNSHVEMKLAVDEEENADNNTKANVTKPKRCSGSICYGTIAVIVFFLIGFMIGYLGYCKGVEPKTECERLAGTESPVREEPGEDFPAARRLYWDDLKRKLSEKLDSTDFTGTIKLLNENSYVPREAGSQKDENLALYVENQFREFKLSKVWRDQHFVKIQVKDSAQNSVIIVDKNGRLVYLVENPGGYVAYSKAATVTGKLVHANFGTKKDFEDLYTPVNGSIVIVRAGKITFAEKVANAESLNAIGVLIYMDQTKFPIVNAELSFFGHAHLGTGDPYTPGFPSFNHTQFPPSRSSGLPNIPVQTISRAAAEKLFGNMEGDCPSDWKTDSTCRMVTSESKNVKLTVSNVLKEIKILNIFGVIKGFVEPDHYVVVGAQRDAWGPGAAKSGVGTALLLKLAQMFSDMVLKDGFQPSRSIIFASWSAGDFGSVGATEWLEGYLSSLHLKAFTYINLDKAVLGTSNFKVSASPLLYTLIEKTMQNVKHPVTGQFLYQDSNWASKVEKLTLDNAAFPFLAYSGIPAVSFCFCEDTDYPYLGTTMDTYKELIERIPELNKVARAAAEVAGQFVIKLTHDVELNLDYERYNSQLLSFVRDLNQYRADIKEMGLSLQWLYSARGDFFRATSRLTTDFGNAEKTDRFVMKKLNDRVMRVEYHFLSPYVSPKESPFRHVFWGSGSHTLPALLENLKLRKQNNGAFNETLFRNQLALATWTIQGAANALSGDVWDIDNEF
Briefly: FACS on HCC1806 cells. How it is done:
(§2) In this study, the binding of the antibodies of the present disclosure to the indicated cell lines were performed using a standard FACS labelling method.

The target in assay [4] is T2, human CD71 (transferrin receptor …). Briefly: FACS on H292 cells, uncleaved. How it is done:
In this study, the binding of the antibodies of the present disclosure to the indicated cell lines were performed using a standard FACS labelling method. […] These activatable antibodies include the light chain of the correspondingly named sequence listed above in Table C. The cells were labeled with the indicated test article at the indicated concentrations and subsequently detected with an Alexa Fluor 647 labeled goat anti-human IgG secondary antibody.

The target in assay [5] is T1, recombinant human CD71 protein. Briefly: ELISA, 1 µg/mL recombinant human CD71, uncleaved. How it is done:
as §1

Assay [6] has as its target T2, human CD71 (transferrin receptor …). Briefly: FACS on MDA MB 231 cells. As for the experimental part:
as §2

Assay [7] shares this target. Briefly: FACS on H292 cells. As for the experimental part: as §2

T1 sequence (P02786 89-760 limits assumed): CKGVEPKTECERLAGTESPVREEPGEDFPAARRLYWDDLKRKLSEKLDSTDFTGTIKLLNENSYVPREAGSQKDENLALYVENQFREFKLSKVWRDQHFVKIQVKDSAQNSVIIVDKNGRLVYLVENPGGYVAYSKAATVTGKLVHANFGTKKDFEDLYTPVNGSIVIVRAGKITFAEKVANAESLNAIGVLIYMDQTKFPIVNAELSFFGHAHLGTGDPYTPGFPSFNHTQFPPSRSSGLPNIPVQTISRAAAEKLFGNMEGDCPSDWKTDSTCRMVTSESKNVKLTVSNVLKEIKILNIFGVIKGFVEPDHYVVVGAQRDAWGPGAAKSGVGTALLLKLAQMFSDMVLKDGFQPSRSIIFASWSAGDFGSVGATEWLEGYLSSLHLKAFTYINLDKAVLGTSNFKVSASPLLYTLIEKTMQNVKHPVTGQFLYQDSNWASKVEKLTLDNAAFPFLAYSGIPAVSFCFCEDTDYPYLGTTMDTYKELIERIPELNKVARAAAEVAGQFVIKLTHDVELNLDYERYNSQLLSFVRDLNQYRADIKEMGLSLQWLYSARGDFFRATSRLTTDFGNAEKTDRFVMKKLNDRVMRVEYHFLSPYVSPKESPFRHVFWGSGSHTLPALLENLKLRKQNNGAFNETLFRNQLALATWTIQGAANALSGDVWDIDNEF

B1: anti-human CD71 TF02-2001 activatable antibody (antibody, human IgG1, kappa)
heavy: not shown
light: QGQSGQGNLCTEHSFALDCRSYGGGSSGGSISSGLLSGRSDNHGGGSDIQMTQSPSSLSASVGDRVTITCSASSSVYYMYWFQQKPGKAPKLWIYSTSNLASGVPSRFSGSGSGTDYTLTISSMQPEDFATYYCQQRRNYPYTFGQGTKLEIKRTVAAPSVFIFPPSDEQLKSGTASVVCLLNNFYPREAKVQWKVDNALQSGNSQESVTEQDSKDSTYSLSSTLTLSKADYEKHKVYACEVTHQGLSSPVTKSFNRGEC
Consider B1, for which the “ME (masking efficiency)” value in assay [1] amounted to 153 fold. The Kd (usually the constant that tells how readily two partners part at equilibrium) in assay [2] came to 21.4 nM.

B2: CD71 TF02.13-2001-spdb-DM4 (antibody, human IgG1, kappa)
heavy: not shown
light: QGQSGQGNLCTEHSAALDCRSYGGGSSGGSISSGLLSGRSDNHGGGSDIQMTQSPSSLSASVGDRVTITCSASSSVYYMYWFQQKPGKAPKLWIYSTSNLASGVPSRFSGSGSGTDYTLTISSMQPEDFATYYCQQRRNYPYTFGQGTKLEIKRTVAAPSVFIFPPSDEQLKSGTASVVCLLNNFYPREAKVQWKVDNALQSGNSQESVTEQDSKDSTYSLSSTLTLSKADYEKHKVYACEVTHQGLSSPVTKSFNRGEC
modifications: spdb-DM4 conjugated to the antibody; chain and residues not stated
In turn, B2 yielded a Kd in assay [3] of about 200 nM.

B3: anti-human CD71 TF02.13-2011 activatable antibody (antibody, human IgG1, kappa)
heavy: not shown
light: QGQSGQGNLCTEHSAALDCRSYGGGSSGGSISSGLLSGRSDNPGGGSDIQMTQSPSSLSASVGDRVTITCSASSSVYYMYWFQQKPGKAPKLWIYSTSNLASGVPSRFSGSGSGTDYTLTISSMQPEDFATYYCQQRRNYPYTFGQGTKLEIKRTVAAPSVFIFPPSDEQLKSGTASVVCLLNNFYPREAKVQWKVDNALQSGNSQESVTEQDSKDSTYSLSSTLTLSKADYEKHKVYACEVTHQGLSSPVTKSFNRGEC
In the case of B3, the Kd in assay [4] is 57.1 nM; in assay [5], 4.27 nM.

B4: anti-human CD71 TF02.13-2013 activatable antibody (antibody, human IgG1, kappa)
heavy: not shown
light: QGQSGQGNLCTEHSAALDCRSYGGGSSGGSISSGLLSGRSANIGGGSDIQMTQSPSSLSASVGDRVTITCSASSSVYYMYWFQQKPGKAPKLWIYSTSNLASGVPSRFSGSGSGTDYTLTISSMQPEDFATYYCQQRRNYPYTFGQGTKLEIKRTVAAPSVFIFPPSDEQLKSGTASVVCLLNNFYPREAKVQWKVDNALQSGNSQESVTEQDSKDSTYSLSSTLTLSKADYEKHKVYACEVTHQGLSSPVTKSFNRGEC
On to B4, for which the Kd in assay [4] came to 70.3 nM; in assay [5], 3.25 nM.

B5: anti-human CD71 TF02.13-2007 activatable antibody (antibody, human IgG1, kappa)
heavy: not shown
light: QGQSGQGNLCTEHSAALDCRSYGGGSSGGSISSGLLSGRSDIHGGGSDIQMTQSPSSLSASVGDRVTITCSASSSVYYMYWFQQKPGKAPKLWIYSTSNLASGVPSRFSGSGSGTDYTLTISSMQPEDFATYYCQQRRNYPYTFGQGTKLEIKRTVAAPSVFIFPPSDEQLKSGTASVVCLLNNFYPREAKVQWKVDNALQSGNSQESVTEQDSKDSTYSLSSTLTLSKADYEKHKVYACEVTHQGLSSPVTKSFNRGEC
Turning to B5, in assay [4], the Kd worked out at 70.3 nM.

B6: anti-human CD71 TF02.13-2008 activatable antibody (antibody, human IgG1, kappa)
heavy: not shown
light: QGQSGQGNLCTEHSAALDCRSYGGGSSGGSISSGLLSGRSDQHGGGSDIQMTQSPSSLSASVGDRVTITCSASSSVYYMYWFQQKPGKAPKLWIYSTSNLASGVPSRFSGSGSGTDYTLTISSMQPEDFATYYCQQRRNYPYTFGQGTKLEIKRTVAAPSVFIFPPSDEQLKSGTASVVCLLNNFYPREAKVQWKVDNALQSGNSQESVTEQDSKDSTYSLSSTLTLSKADYEKHKVYACEVTHQGLSSPVTKSFNRGEC
On to B6, for which the Kd in assay [4] came out at 90 nM; in assay [5] it was 15.1 nM.

B7: anti-human CD71 TF02.13-2012 activatable antibody (antibody, human IgG1, kappa)
heavy: not shown
light: QGQSGQGNLCTEHSAALDCRSYGGGSSGGSISSGLLSGRSANPGGGSDIQMTQSPSSLSASVGDRVTITCSASSSVYYMYWFQQKPGKAPKLWIYSTSNLASGVPSRFSGSGSGTDYTLTISSMQPEDFATYYCQQRRNYPYTFGQGTKLEIKRTVAAPSVFIFPPSDEQLKSGTASVVCLLNNFYPREAKVQWKVDNALQSGNSQESVTEQDSKDSTYSLSSTLTLSKADYEKHKVYACEVTHQGLSSPVTKSFNRGEC
For B7, the Kd in assay [4] was 39.1 nM; in assay [5], 1.64 nM.

B8: CD71 Ab21.12-PEG2-vc-MMAD (antibody, human IgG1, kappa)
heavy: not shown
light: DIQMTQSPSSLSASVGDRVTITCSASSSVYYMYWFQQKPGKAPKLWIYSTSNLASGVPSRFSGSGSGTDYTLTISSMQPEDFATYYCQQRRNYPYTFGQGTKLEIKRTVAAPSVFIFPPSDEQLKSGTASVVCLLNNFYPREAKVQWKVDNALQSGNSQESVTEQDSKDSTYSLSSTLTLSKADYEKHKVYACEVTHQGLSSPVTKSFNRGEC
modifications: PEG2-vc-MMAD conjugated to the antibody; chain and residues not stated
notes: antibody drug conjugate of Ab21.12
In assay [6], B8 registered a Kd of 1.47 nM.

B9: CD71 Ab 21.12-spdb-DM4 (antibody, human IgG1, kappa)
heavy: not shown
light: DIQMTQSPSSLSASVGDRVTITCSASSSVYYMYWFQQKPGKAPKLWIYSTSNLASGVPSRFSGSGSGTDYTLTISSMQPEDFATYYCQQRRNYPYTFGQGTKLEIKRTVAAPSVFIFPPSDEQLKSGTASVVCLLNNFYPREAKVQWKVDNALQSGNSQESVTEQDSKDSTYSLSSTLTLSKADYEKHKVYACEVTHQGLSSPVTKSFNRGEC
modifications: spdb-DM4 conjugated to the antibody; chain and residues not stated
notes: as for B8
Turning to B9, binding in assay [6] was characterised by a dissociation constant (Kd) of 1.24 nM.

B10: CD71 Ab 21.12-vc-MMAE (antibody, human IgG1, kappa)
heavy: not shown
light: DIQMTQSPSSLSASVGDRVTITCSASSSVYYMYWFQQKPGKAPKLWIYSTSNLASGVPSRFSGSGSGTDYTLTISSMQPEDFATYYCQQRRNYPYTFGQGTKLEIKRTVAAPSVFIFPPSDEQLKSGTASVVCLLNNFYPREAKVQWKVDNALQSGNSQESVTEQDSKDSTYSLSSTLTLSKADYEKHKVYACEVTHQGLSSPVTKSFNRGEC
modifications: vc-MMAE conjugated to the antibody; chain and residues not stated
notes: as for B8
Consider B10, for which the “Bmax (MFI)” value in assay [7] worked out at 1600 MFI. Moreover, the Kd in assay [7] worked out at 1.33 nM; in assay [3], 6.4 nM.

B11: anti-human CD71 TF02.13-3007 activatable antibody (antibody, human IgG1, kappa)
heavy: not shown
light: QGQSGQGNLCTEHSAALDCRSYGGGSSGGSAVGLLAPPGGLSGRSDIHGGSDIQMTQSPSSLSASVGDRVTITCSASSSVYYMYWFQQKPGKAPKLWIYSTSNLASGVPSRFSGSGSGTDYTLTISSMQPEDFATYYCQQRRNYPYTFGQGTKLEIKRTVAAPSVFIFPPSDEQLKSGTASVVCLLNNFYPREAKVQWKVDNALQSGNSQESVTEQDSKDSTYSLSSTLTLSKADYEKHKVYACEVTHQGLSSPVTKSFNRGEC
Regarding B11, the Kd came out at 86.7 nM in assay [4] and 2.21 nM in assay [5].

B12: CD71 TF02.13-3001-spdb-DM4 (antibody, human IgG1, kappa)
heavy: not shown
light: QGQSGQGNLCTEHSAALDCRSYGGGSSGGSAVGLLAPPGGLSGRSDNHGGSDIQMTQSPSSLSASVGDRVTITCSASSSVYYMYWFQQKPGKAPKLWIYSTSNLASGVPSRFSGSGSGTDYTLTISSMQPEDFATYYCQQRRNYPYTFGQGTKLEIKRTVAAPSVFIFPPSDEQLKSGTASVVCLLNNFYPREAKVQWKVDNALQSGNSQESVTEQDSKDSTYSLSSTLTLSKADYEKHKVYACEVTHQGLSSPVTKSFNRGEC
modifications: spdb-DM4 conjugated to the antibody; chain and residues not stated
Turning to B12, the Kd in assay [3] was about 200 nM; in assay [6], 46.9 nM.

B13: CD71 TF02.13-3001-PEG2-vc-MMAD (antibody, human IgG1, kappa)
heavy: not shown
light: QGQSGQGNLCTEHSAALDCRSYGGGSSGGSAVGLLAPPGGLSGRSDNHGGSDIQMTQSPSSLSASVGDRVTITCSASSSVYYMYWFQQKPGKAPKLWIYSTSNLASGVPSRFSGSGSGTDYTLTISSMQPEDFATYYCQQRRNYPYTFGQGTKLEIKRTVAAPSVFIFPPSDEQLKSGTASVVCLLNNFYPREAKVQWKVDNALQSGNSQESVTEQDSKDSTYSLSSTLTLSKADYEKHKVYACEVTHQGLSSPVTKSFNRGEC
modifications: PEG2-vc-MMAD conjugated to the antibody; chain and residues not stated
Regarding B13, in assay [6], the Kd came to 52.6 nM.

B14: CD71 TF02.13-3001-vc-MMAE (antibody, human IgG1, kappa)
heavy: not shown
light: QGQSGQGNLCTEHSAALDCRSYGGGSSGGSAVGLLAPPGGLSGRSDNHGGSDIQMTQSPSSLSASVGDRVTITCSASSSVYYMYWFQQKPGKAPKLWIYSTSNLASGVPSRFSGSGSGTDYTLTISSMQPEDFATYYCQQRRNYPYTFGQGTKLEIKRTVAAPSVFIFPPSDEQLKSGTASVVCLLNNFYPREAKVQWKVDNALQSGNSQESVTEQDSKDSTYSLSSTLTLSKADYEKHKVYACEVTHQGLSSPVTKSFNRGEC
modifications: vc-MMAE conjugated to the antibody; chain and residues not stated
In the case of B14, in assay [7], the “Bmax (MFI)” value stood at 1850 MFI and the Kd was determined as 53.8 nM.

B15: anti-human CD71 TF02.13-3008 activatable antibody (antibody, human IgG1, kappa)
heavy: not shown
light: QGQSGQGNLCTEHSAALDCRSYGGGSSGGSAVGLLAPPGGLSGRSDQHGGSDIQMTQSPSSLSASVGDRVTITCSASSSVYYMYWFQQKPGKAPKLWIYSTSNLASGVPSRFSGSGSGTDYTLTISSMQPEDFATYYCQQRRNYPYTFGQGTKLEIKRTVAAPSVFIFPPSDEQLKSGTASVVCLLNNFYPREAKVQWKVDNALQSGNSQESVTEQDSKDSTYSLSSTLTLSKADYEKHKVYACEVTHQGLSSPVTKSFNRGEC
For the molecule B15, the Kd in assay [4] was 97.8 nM; in assay [5] it was 2.61 nM.

B16: anti-human CD71 TF02.13-3011 activatable antibody (antibody, human IgG1, kappa)
heavy: not shown
light: QGQSGQGNLCTEHSAALDCRSYGGGSSGGSAVGLLAPPGGLSGRSDNPGGSDIQMTQSPSSLSASVGDRVTITCSASSSVYYMYWFQQKPGKAPKLWIYSTSNLASGVPSRFSGSGSGTDYTLTISSMQPEDFATYYCQQRRNYPYTFGQGTKLEIKRTVAAPSVFIFPPSDEQLKSGTASVVCLLNNFYPREAKVQWKVDNALQSGNSQESVTEQDSKDSTYSLSSTLTLSKADYEKHKVYACEVTHQGLSSPVTKSFNRGEC
B16: the Kd in assay [4] is 67.4 nM; in assay [5] it was 0.778 nM.

B17: anti-human CD71 TF02.13-3013 activatable antibody (antibody, human IgG1)
heavy: not shown
VL: QGQSGQGNLCTEHSAALDCRSYGGGSSGGSAVGLLAPPGGLSGRSANIGGSDIQMTQSPSSLSASVGDRVTITCSASSSVYYMYWFQQKPGKAPKLWIYSTSNLASGVPSRFSGSGSGTDYTLTISSMQPEDFATYYCQQRRNYPYTFGQGTKLEIK
notes: without spacer 851
On to B17, for which the Kd was 78.3 nM in assay [4] and 4.91 nM in assay [5].
